The record followed here is patent US20050154189A1 (MAXYGEN, published 2005).

This assay concerns the target T1, Soluble CTLA-4-Ig (human, UniProt P16410 36-161, FITC-conjugated in the two-colour FACS assays; unlabelled and detected with FITC goat anti-human IgG in the concentration-dependent assay).
T1 construct: extracellular domain; Bought from R&D Systems; also called sCTLA-4-Ig; CTLA-4-Ig Fc; not shown: Fc portion of human IgG1
As to the kind of experiment: two-colour FACS profile on transfected cells; score of preference for CTLA-4-Ig over CD28-Ig vs WT hB7-1.

T1 sequence (P16410 36-161): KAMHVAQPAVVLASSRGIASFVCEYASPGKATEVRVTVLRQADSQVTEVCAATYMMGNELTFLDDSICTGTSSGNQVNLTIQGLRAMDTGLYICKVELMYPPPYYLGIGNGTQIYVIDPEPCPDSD

B1: Round 2 CTLA4 A-B4-6 (ligand)
chain: ITPKSVTKRVKETVMLSCDYNTSTEELTSLRIYWQKDSKMVLAILPGKVQVWPEYKNRTITDMNDNPRIVILALRLSDKGTYTCVVQKNENGSFRREHLTSVTLSIRADFPVPTINDLGNPSPNIRRLICSTSGGFPRPHLYWLENGEELNATNTTLSQDPETKLYMISSELDFNMTSNHSFLCLVKYGDLTVSQTFYWQESKPTPSANQHLTWTIIIPVSAFGISVIIAVILTCLTCRNAAIRRQRRENEVEMQSCSQSP
Take B1: the “Binding Score” value worked out at 1.

B2: Round 2 CTLA4 A-F1-6 (ligand)
chain: ITPKSVTKRVKETVMLSCDYSTSTEELTSLRIYWQKDSKMVLAILPGKVQVWPEYKNRTITDMNDNPRIVILALRLSDKGTYTCVVQKNENGSFRREHLTSVRLMIRADFPVPTINDLGNPSPNIRRLICSTSGGFPRPHLYWLENGEELNATNTTLSQDPETKLYMISSELDFNMTSNHSFLCLVKYGDLTVSQTFYWQESKPTPSANQHLTWTIIIPVSAFGISVIIAVILTCLTCRNAAIRRQRRENEVEMQSCSQSP
Turning to B2, the “Binding Score” value came out at 1.

B3: Round 2 CTLA4 A-F10-1 (ligand)
chain: ITPKSVTKRVKETVMLSCDYNTSTEELTSLRIYWQKDSKMVLAILPGKVQVWPEYKNRTITDMNDNPRIVILALRLSDKGTYTCVVQKNENGSFRREHLTSVTLSIRADFPVPTINDLGNPSPNIRRLICSTSGGFPRPHLYWLENGEELNATNTTLSQDPETKLYMISSELDFNMTSNHSFLCLVKYGDLTVSQTLYWQESKPTPSANQHLTWTIIIPVSAFGISVIIAVILTCLTCRNAAIRRQRRENEVEMQSCSQSP
Take B3: the “Binding Score” value was found to be 1.

B4: Round 2 CTLA4 A-E2-6 (ligand)
chain: ITPKSVTKRVKETVMLSCDYNTSTEELTSLRIYWQKDSKMVLAILPGKVQVWPEYKNRTITDMNDNPRIVILALRLSDSGTYTCVVQKNENGSFRREHLTSVRLMIRADFPVPTINDLGNPSPNIRRLICSTSGGFPRPHLYWLENGEELNATNTTLPQDPETKLYMISSELDFNMTSNHSFLCLVKYGDLTVSQTFYWQESKPTPSANQHLTWTIIIPVSAFGISVIIAVILTCLTCRNAAIRRQRRENEVEMQSCSQSP
Turning to B4, the “Binding Score” value is 1.

B5: Round 2 CTLA4BP 2x1-e2 (ligand)
chain: VIHVTKEVKEVATLSCGHNVSDEELAQTRIHWQKEKKMVLTMMSGDMNIWPEYKNRTIFDITNNLSIVILALRPSDEGTYECVVLKYEKDAFKREHLAEVTLSVKADFPTPSISDFEIPPSNIRRIICSTSGGFPEPHLSWLENGEELNAINTTVSQDPGTELYTVSSKLDFNMTTNHSFMCLIKYGHLRVNQTFNWNTPKQEHFPDNLLPSAITLISANGIFVICCLTYCFAPRCRERRRNERLRRESIHPV
Turning to B5, the “Binding Score” value amounted to 1.

B6: Round 2 CTLA4 A-H3-6 (ligand)
chain: GISQVTKSVKEMAALSCDYNISIDELARMRIYWQKDQQMVLSIISGQVEVWPEYKNRTFPDIINNLSLMILALRLSDKGTYTCVVQKNENGSFRREHLTSVTLSIRADFPVPSINDLGNPSPNIRRLICSTSGGFPRPHLYWLENGEELNATNTTLSQDPETKLYMISSELDFNMTSNHSFLCLVKYGDLTVSQTFYWQESKPTPSANQHLTWTIIIPVSAFGISVIIAVILTCLTCRNAAIRRQRRENEVEMQSCSQSP
On to B6, for which the “Binding Score” value was determined as 1.

B7: Round 2 CTLA4BP 2x3-h2 (ligand)
chain: VIHVTKEVKEVATLSCGHNVSVEELAQTRIYWQKEKKMVLTMMSGDMNIWPEYKNRTIFDITNNLSIVILALRPSDEGTYECVVLKYEKDAFKREHLAEVMLSVKADFPTPSISDFEIPPSNIRRIICSTPGGFPEPRLAWMEDGEELNAISTTVSQDPGTELYAVSSKLDFNMTTNHSFMCLIKYGHLRVNQTFNWNTTKQEHFPDNLLPSWAITLISVKGIFVICCLTYCFAPRWRERKSNERLRRESVRPV
Consider B7, for which the “Binding Score” value was 0.
